Experimental data published in the DeepSol protein solubility set.

assay: soluble on expression in E. coli; label from the status in PepcDB or PDB records

Soluble on expression in E. coli, not soluble:
MAHHHHHHMSSSVQNHQQTLLQARTHVAARDTTAVAILGAKAGSNGSSQSFRPAAQCLEHTQSSFNQTDISQRPPFIASEAATVSLLRRMEVLDNGRAGSTSDNAAANVVPSHQSVQRQRVTAHTLNKTTLANNDVTGEAPKPPSMAESTLKAGAQRRRIVKSNRNAVASRGPSESLKKCGPAVNVNDDGHRNDSAMAMNVPTQITVAARGGARGRVFHSNPFVTRNGKRFSAQNARRGISTATLSPPHTAITVSDDYSADFSVHDAFDVLSPMTPANPTYQKTLQVQQQQQWHSGSWIYDLNAGANTDSFTDDGSPIEFVVEDFELDDTVLGGTKHNDFGGQASKGGPDRFSTAAASNPDRLRQQNHARWAASRGPTRGATLASGTTATQQAGGARHLTTKSTMGSDPAGPDSPSGVLKERARLAKGVKLHNGPPMIKIPPLALDVINANRKTGKASYKVSHPKPGVVVPDIESSSTECSDMPNNSSLQGNFEALGVKVSNSPLGGRGSIEGRGNDKRVGGVHNGSLLSGSAVDGHRAGAAGSSAYKGSLQNCGRHGMLSMPFDGTSNDSQVHEASPSRNAREGFRGNSGGFGMHGGPFGSVQRQRWLVEADKHSSGESRPPMTNARKKAKCCVVM
MKCYFRSFDAGIGDCNIIRLVKNEGEQYVIMVDCGSYTEPLKEYLQNALHNHIDLLIATHIDGDHIQGIATMLKKHEGLTVGEIWYNCYKRTKGAEYIELNDQQKAILKQIQKALPVEFDAINYREITATQGKTLAQTILCNEKFKGVWKTEYITSNTEDFDIPGGFGKIVFLAPRQEALKAIENKFKEAFDKYFMQAWNESIENVEELQELLIRLVDAYQDKFGGKQISAKNKPVYNVAFVRKQAKEEGADDSDTNCSSIAFMLECGEHRIAMLGDAFADIIEETIDNKYKDQAKPMECDAIKVSHHGSNGNSSKTLLDRINSHIYFIPGGKGEKYPAWGTFGRIAEKHKDDQAKLIVFSRQCTITEKMNGLNEEVKRELGVETIITEQEYELFEW
MGSDKIHHHHHHVKKLELYTGTEQGKPAIGIRLGGEASIQDLLDLWQPLCDDSELFKSYAAGNHATCRGCLHNCCQTAYVIPDLISFKKMAAHLHLTYKEFLSADFFDAEKLEAGIVRMKPNPCIFLQDNICSIYPLRSLICRFYICCQLMGDCEQLIYSICWSGSAATQLFAEQEGLINSKGSGALSSFDLMFKRLMEEYRFDPRVQLFLQANDYYDIPLSAFTAADI
SLTVFQPLVPPDWKMNLRDGELYAQVAFSAAPEQGFRAGGHGVLKGGSAWMPDNQVNGVDFVLPFRFADGAWHLGTRGPVTLRIAEVINLVTAKNITADLQGRYPWTEEEPLLLTDVSVDVLGGNVLMKQLRMPQHDPALLRLNNLSSSELVSAVNPKQFAMSGAFSGALPLWLNNEKWIVKDGWLANSGPMTLRLDKDTADAVVKDNMTAGSAINWLRYMEISRSSTKINLDNLGLLTMQANITGTSRVDGKSGTVNLNYHHEENIFTLWRSLRFGDNLQAWLEQ
MARLSQEIILDMAEQIIYEKGMEKTTLYDIAGNLNVTHAALYKHYRNKEDLFQKLALRWLEETSREIFAWTKEKDASPDDALHDWLWLLADTKKTLYKTDRKMFLLYTDYIEQKEELVKNHIEHLAQKAEEVSGRVNQGDAIITAFIYFHNPYFASRWEKAGYVELFERVWQVVR
RRVADEIVISHPELADEVDTVCNKIQAGKPMPESLRELVVRTGLEELMGLVSMLSHASRIGGSLVNSLREYTEDYRDKRQQAAEEIAAKIPVK
MICYEYINDYIRKTIKKNEGFLAELEEFAKENHVPIVHPEVASLLRVIGLTLRPSRVLEVGTAIGYSAILFSTFLEPGGRIDTIDRYELMLEKARANVKKAGLQDVINIIEGDALEVLKCLEHKYDMIFLDAAKGQYPEFLPECLRLLRSGGLLISDNILYKGMVAKDELVVRRKKTIVKRLRNYLETICNTDELETSILPVGDGLAISFKK
MGSDKIHHHHHHMLQIKRKINATQSLMKITRAMEMVARAKVRKIESEYQKFKPFYDEVKRLWALVPAESLDPIFFEEGNRDLIVVITSDMGLCGSFNSEILREAERVISESRDPHLILVGLKAINHFKDGKVLKMYDRFYEIPDFRNGSTIVEDILNFLDGKPARVRVIFSRFKNVLIQRPEVHELLPIKKEEKKREDFEYEPRLEQIAPLIFHYYLSATLMELMFQTKIGEYYARQNAMKNATDNAQEVIRELTLAYNKARQASITQELIEIVTGAEALKEIEK
VAADAYLVRRGQETKRGSGKGGASKGTPRGLSVIAGYPWFADWGRDAMIALSGLTLVTGRFEDARELLLTFLGQRRRGLIPNHFDESGQGAGYNTVARPLWLAVALERYARTTGDALFVRQALPMLRELLGSLVQGTDYGIGMDPADALLRAGEPGVQLTWMDVKIHDWVVTPRHGKPVEIQALWLAALGAELRLSQALGEPPRYAAVLERAHHSFKAQFWNHAADLTAAPTATLLGLGQLGSSLGGALSDALDGDFVLDDEPRRDTSSDALLTVGGRPGSGPVQSTTGASELGVGHRPGAAPAQPAVLADVIQPSGEQDLSVRPNAVIALALADTPVVDEQLDAVLAQTERELLTPVGLHTLSPHDPRYLGNYGGPQLLRDAAYHQGTVWPWPLASYVELLLSRGELNRARAALAGLTGHVWEAGIGHVSEVFSGDALTPGGCPFQAWSVAELLR
MAKRVIIAGGNIAGTIVANRLVQKLEHEVNKGDVEIVALNKSDEHIYLPGQLLVGFGLETPGELVRKESELLDPRIKFLHGQKGTISKIDVANHSVQTADGVSHSYDYLVITTGVDYTWDEIPGYRSAAHTVYEYDDAIKMREALEKFDGGTIVVNTAKLPHRCPVAPLEVTLILDDYLRKRGIRDKTKIIYTYPVQGVFGRPITNKFMLRLFEQRGIEVHSPFTVTSVDPNNKVIESQEGEKLKFDMLIGIPPNMGAKVIEDSGIGDRRRWVPTDKFTLRMKDHSNVYVMGDATDLPVSKAGSTADFESYTVAHNIANDIKGNLGVKHYGGDVLCYIATGTDQATYIRFSYTMNESPPPPSYVHWWGKIMYNKMYWTVTAKAVVLEHHHHHH

Soluble on expression in E. coli, soluble:
MLQVRVKPGVEDRIRGFFPWVYRSEIASFSRKPKKGEIVVVRDVNGKFLGYGYINPEVNIAIRILSFDKNEPVTPELIRKRIKQAYEYRKRLYINSNAYRLVHSEGDLLPGLIVDVYGSYLAVEFTTYGMNQFREVILDTLVELLRPKGIYEKVNEIAKRVEGLDVEERVIYGEVPEEVIIWEHDLKYYINIPQGQKTGFFLDQRNARKFVRNLVEPGDRCLDVFCHTGGFALNMKRAGAGEVIGVDISELALKEAEKNARLNGFTDIKWVKANAFDYLRELDKKGEKFDVIIIDPPSFAKNRAAVPNALRGYKELCVRGLKIAKSGGYLAIFSCSFHITEQHLLDVLLQASYDVRRQVRVIAKTFQDLDHPWILQMPNTLYLKGVWVEVV
MERIDSHVSPRYAQIPTFMRLPHDPQPRGYDVVVIGAPYDGGTSYRPGARFGPQAIRSESGLIHGVGIDRGPGTFDLINCVDAGDINLTPFDMNIAIDTAQSHLSGLLKANAAFLMIGGDHSLTVAALRAVAEQHGPLAVVHLDAHSDTNPAFYGGRYHHGTPFRHGIDEKLIDPAAMVQIGIRGHNPKPDSLDYARGHGVRVVTADEFGELGVGGTADLIREKVGQRPVYVSVDIDVVDPAFAPGTGTPAPGGLLSREVLALLRCVGDLKPVGFDVMEVSPLYDHGGITSILATEIGAELLYQYARAHRTQL
SLVPQGGPVLCRDEMEEWSASEAMLFEEALEKYGKDFNDIRQDFLPWKSLASIVQFYYMWKTTDRYIQQKRLKAAEAEG
MGTRDDEYDYLFKVVLIGDSGVGKSNLLSRFTRNEFNLESKSTIGVEFATRSIQVDGKTIKAQIWDTAGQERYRAITSAYYRGAVGALLVYDIAKHLTYENVERWLKELRDHADSNIVIMLVGNKSDLRHLRAVPTDEARAFAEKNGLSFIETSALDSTNVEAAFQTILTEIYRIVSQKQMSDRRENDMSPSNNVVPIHVPPTTENKPKVQCCQNI
MSLEAVIFDMDGVLMDTEPLYFEAYRRVAESYGKPYTEDLHRRIMGVPEREGLPILMEALEIKDSLENFKKRVHEEKKRVFSELLKENPGVREALEFVKSKRIKLALATSTPQREALERLRRLDLEKYFDVMVFGDQVKNGKPDPEIYLLVLERLNVVPEKVVVFEDSKSGVEAAKSAGIERIYGVVHSLNDGKALLEAGAVALVKPEEILNVLKEVLEGHHHHHH
MIVSILGAGAMGSALSVPLVDNGNEVRIWGTEFDTEILKSISAGREHPRLGVKLNGVEIFWPEQLEKCLENAEVVLLGVSTDGVLPVMSRILPYLKDQYIVLISKGLIDFDNSVLTVPEAVWRLKHDLRERTVAITGPAIAREVAKRMPTTVVFSSPSESSANKMKEIFETEYFGVEVTTDIIGTEITSALKNVYSIAIAWIRGYESRKNVEMSNAKGVIATRAINEMAELIEILGGDRETAFGLSGFGDLIATFRGGRNGMLGELLGKGLSIDEAMEELERRGVGVVEGYKTAEKAYRLSSKINADTKLLDSIYRVLYEGLKVEEVLFELATFK
GMSSNVSHFEGTRPVADQQRFDTEALEAWMRQHVEGFAGPLSVEQFKGGQSNPTFKLVTPGQTYVMRAKPGPKSKLLPSAHAIEREYRVMDALAGTDVPVAKMYALCEDESVIGRAFYIMEFVSGRVLWDQSLPGMSPAERTAIYDEMNRVIAAMHTVDYQAIGLGDYGKPGNYFQRQIERWTKQYKLSETESIPAMDSLMDWLPQHIPQEDADLTSIVHGDYRLDNLMFHPTEPRVLAVLDWELSTLGHPMGDFGYHCMSWHIAPGQFRGIAGLDHAALGIPDEASYRKLYEQRTGRPITGDWNFYLAFSMFRIAGILQGIMKRVVDGTASSAQALDAGKRARPMAEMGWEYAKKAKQ
MGYASKLALKICLASLCLFSALGAEHLEQKRNYIYKGEEAYNNKEYERAASFYKSAIKNGEPLAYVLLGIMYENGRGVPKDEKKAAEYFQKAVDNDIPRGYNNLGVMYKEGRGVPKDEKKAVEYFRIATEKGYTNAYINLGIMYMEGRGVPSNYVKATECFRKAMHKGNVEAYILLGDIYYSGNDQLGIEPDKDKAIVYYKMAADMSSSRAYEGLAESYQYGLGVEKDKKKAEEYMQKACDFDIDKNCKKKNTSSRLEHHHHHH
MRGSHHHHHHGMSCSKSVIKEEMLIDLHLEGTFNGHYFEIKGKGKGQPNEGTNTVTLEVTKGGPLPFGWHILCPQFQYGNKAFVHHPDNIHDYLKLSFPEGYTWERSMHFEDGGLCCITNDISLTGNCFYYDIKFTGLNFPPNGPVVQKKTTGWEPSTERLYPRDGVLIGDIHHALTVEGGGHYACDIKTVYRAKKAALKMPGYHYVDTKLVIWNNDKEFMKVEEHEIAVARHHPFYEPKKDK
MKITHCKLKKKVQKELLRFFVLEVTARSAADILGIHPNSAVLFYRKIRTVINHHLALAADEVFEGPVEPDESDFGGRRKGRRGRGAAGKVVVFGILKRNGRGYTVVVDNAKSETLLPVIKKKIMPDSIVYTDSLSSCDKLDVSGFIHYRINHSKEFADRQNHINGIENFWNQAKRVLRKYNGIDRKSFPLFLKECEFRFNFGTPSQQLKILRDWCGILEHHHHHH
MTSYEEETDYRNVPRELLDNNIPMGRGMIKWAPFATLPEQFETIQQYIIDQNKITRPVLSDDQLAELNIRLHEALQYAQPVEVKFYNNGFVDSVRLTIYRIDAINYEIDGYVYNQQQRQKISIFDILDIVLLPLEHHHHHH
